Test results as given in US20090258005A1 (TRUBION PHARMACEUTICALS, published 2009).

T1: L1-CR1 (Her054P)
T1 construct: also called 1.0
T1 chain: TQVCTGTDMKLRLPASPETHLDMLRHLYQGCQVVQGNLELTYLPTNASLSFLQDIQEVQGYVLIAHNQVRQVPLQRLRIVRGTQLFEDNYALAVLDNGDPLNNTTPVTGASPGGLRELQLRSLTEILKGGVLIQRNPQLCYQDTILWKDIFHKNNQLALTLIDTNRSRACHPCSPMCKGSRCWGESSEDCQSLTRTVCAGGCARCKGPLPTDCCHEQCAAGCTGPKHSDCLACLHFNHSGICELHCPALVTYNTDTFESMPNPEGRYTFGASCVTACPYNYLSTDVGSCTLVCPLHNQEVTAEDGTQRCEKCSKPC


Experiments:
[1] = target: T2, Her018P, Her2 ECD with a deletion in the CR2 (Domain IV) region expressed with a mIgG2a Fc tail (human; murine, UniProt P04626 23-599); experiment: ELISA, soluble scFv on Her018
T2 construct: Shares the name HER018 with the trastuzumab SMIP; also called 1.8 (Dimer); dimeric HER018; not shown: murine IgG2a Fc tail (C-terminal dimerising carrier) and any junction residues

[2] = target: T1, L1-CR1 (Her054P); experiment: ELISA, soluble scFv on L1-CR1
Description: (§1) Various Her2-Fc proteins (e.g., Her008P, Her017P, Her018P, etc.) or a negative control murine IgG2a protein were coated overnight at 4° C. on 96-well Nunc Maxisorp at a concentration of 1 ug/ml in PBS. Alternatively, pre-blocked streptavidin-coated plates (Greiner) were coated with biotinylated Her2-Fc proteins for 1 hour at room temperature at a concentration of 1 ug/ml in block buffer (3% skim milk/1% BSA/PBS). Plates were washed three times using PBS and blocked for 1 hour at room temperature in 3% skim milk/1% BSA/PBS. Phage or peripreps were prepared as described above and were blocked for 1 hour at room temperature in an equal volume of 6% skim milk/1% BSA/PBS. Blocked plates were washed five times with PBS and 50 μl/well of blocked phage or periprep were transferred to the appropriate plates and incubated for 1 hour at room temperature. […] Plates were incubated for a further hour at room temperature and washed seven times with PBS. Signal was developed using TMB, the reaction stopped with H₂SO₄ and the absorbance read at 450 nm on an Envision plate reader (Perkin Elmer).

[3] = target: T3, Full length HER2 (human, UniProt P04626 23-1255); experiment: cell ELISA, phage scFv, SKBR3 cells
T3 construct: Endogenous HER2 on SKBR3, BT474, 22rv1, MDA-MB-175, MDA-MB-453 and MDA-MB-361 cells; also called HER2 on the cell surface; ErbB2

[4] = target: T4, EQR (Her017P); experiment: ELISA, soluble scFv on EQR
T4 construct: also called HER2 EQR-Fc; HER2 EQR DIMER
Description: as §1

[5] = target: T5, Her008P, full-length extracellular domain (ECD) of Her2 expressed with a mIgG2a Fc tail (human; murine, UniProt P04626 23-652); experiment: ELISA, soluble scFv on ECD
T5 construct: also called SIIS; SIIS (Dimer); not shown: murine IgG2a Fc tail

[6] = target: T6, ECD region of Her2 (human, UniProt P04626 23-652); experiment: screening after three rounds of phage selection, soluble periplasmic scFv
T6 construct: extracellular domain; Generic target of the scFv screen; also called extracellular domain (ECD) of Her2 (ErbB2)

| Binder | binding result [1] | binding result [2] | binding result [3] | binding result [4] | binding result [5] | binding result [6] |
| --- | --- | --- | --- | --- | --- | --- |
| S1R3B2_DP47_1E8 (scFv, V domains shown, scFv, on phage in the screen; also called Her2_S1R3B2_DP47_1E8) VH: not shown VL: QAVLTQPSAVSGAPGQRVTISCTGTSSNIGTNYLVHWYQQRPGTAPQLLVSGNNTRPSGVTDRFSVSKSATSASLAITGLQAEDEADYYCQTYDINLRVWVFGGGTKVTVL | no binding | no binding | binds | – | – | – |
| S1R3C1_CS_1A6 (scFv, V domains shown, scFv, on phage in the screen; also called Her2_S1R3C1_CS_1A6) VH: EVQLVQSGAEVKKPGESLKISCKGFGYNFRSAWIGWVRQMPGKGLEWMGVIYPGDSDVRYSPSFQGQVTISADKSISTAYLQWSSLKASDTAMYYCTRPVGQWVDSDYWGKGTLVTVSS VL: QSVLTQPPSASGTPGQRVTISCSGSSSNIGTNTVNWYQQLPGTAPKLLIYTSNQRPSGVPARFSASNSGTSASLAISGLRSEDEADYYCAAWDDKLSGAVFGGGTKLTVL | – | no binding | binds | – | – | – |
| S1R3B1_BMV_1C12 (scFv, V domains shown, scFv, soluble from bacterial periplasm in the screen; also called Her2_S1R3B1_BMV_1C12) VH: EVQLVQSGGGVVQPGRSLRLSCAASGFTFSSYGMHWVRQAPGKGLEWVAVISYDGSIKYYADSVKGRFTISRDNSKNTLYLQMNSLRAEDTAVYYCARTGEYSGYDTSGYSNWGQGTLVTVSS VL: QSVLTQPPSASGTPGQRVTISCSGSSSNIGSNTVNWYQRLPGAAPQLLIYNNDQRPSGIPDRFSGSKSGTSGSLVISGLQSEDEADYYCASWDDSLNGRVFGGGTKLTVL | – | no binding | – | – | – | – |
| S1R3B1_DP47_1E1 (scFv, V domains shown, scFv, soluble from bacterial periplasm in the screen; also called Her2_S1R3B1_DP47_1E1) VH: not shown VL: NFMLTQPHSVSGSPGKTVTISCTRSSGYIDSKYVQWYQQRPGSAPTTVIYEDNRRPSGVPDRFSGSIDSSSNSASLTISGLETEDEADYYCQSYDDTNVVFGGGTKVTVL | no binding | no binding | – | no binding | – | – |
| S1R3B2_BMV_1H5 (scFv, V domains shown, scFv, on phage in the screen; also called Her2_S1R3B2_BMV_1H5) VH: EVQLVQSGGGLVRPGGSLRLSCAASGFSFSDYYMTWIRQIPGKGLEWVAVIWNDGSDRYYADSVKGRFTISRDNSKNTLFLQMSSLRDEDTALYYCVRGGPTASSGFDYWGRGTLVTVSS VL: SSELTQPASVSGSPGQSITISCTGTSSDVGGYNYVSWYLQHPGKAPKLMIYEGSKRPSGVSNRFSGSKSGNTASLTISGLQAEDEADYYCSSYTTRSTRVFGGGTKLTVL | – | no binding | binds | – | – | – |
| S1R3A1_BMV_1G4 (scFv, V domains shown, scFv, soluble from bacterial periplasm in the screen; also called Her2_S1R3A1_BMV_1G4) VH: QVQLVESGAEVKKPGASVKVSCKASGYTFTSYDINWVRQAPGQRLEWMGWINAGNGNTKYSQKFQGRVTITRDTSASTAYMELRSLRSDDTAVYYCARGRSYGHPYYFDYWGQGTLVTVSS VL: QSVLTQPASVSGSPGQSITISCTGTSSDVGGYNYVSWYQQHPGKAPKLMIYEGSKRPSGVSNRFSGSKSGNTASLTISGLQAEDEADYYCSSYTTRSTRVFGGGTKLTVL | no binding | no binding | – | no binding | – | – |
| S1R2C_CS_1H12 (scFv, V domains shown, scFv, on phage in the screen) VH: EVQLVETGGGLVQPGGSLRLSCAASGFTFSSYGMNWVRQAPGKGLEWVSYISSSGNTIFYADSVKGRFTISRDSAKNSVSLQMNSLRDEDTAVYYCASYYSYYYGMDAWGQGTMVTVSS VL: not shown | no binding | no binding | binds | no binding | – | – |
| S1R3B1_BMV_1A10 (scFv, V domains shown, scFv, soluble from bacterial periplasm in the screen; also called Her2_S1R3B1_BMV_1A10) VH: QMQLVQSGGGVVQPGRSLRLSCAASGFTFSSYGMHWVRQAPGKGLEWVAVISYDGSIKYYADSVKGRFTISRDNSKNTLYLQMNSLRAEDTGVYYCSKDRYSSGWYSSDAFDIWGRGTMVTVSS VL: SSELTQDPAVSVALGQTVRITCQGDSLRSYYASWYQQKPGQAPVLVIYGKNNRPSGIPDRFSGSSSGNTASLTITGAQAEDEADYYCHSRDSSGNHVLFGGGTKLTVL | no binding | no binding | – | no binding | – | – |
| S1R3B2_DP47_1C9 (scFv, V domains shown, scFv, on phage in the screen; also called Her2_S1R3B2_DP47_1C9) VH: not shown VL: QSVLTQPPSASGTPGQTVTISCSGSSSNIGSSVVNWYQQFPGTAPKVLVYSNTQRPSGVPDRFSGSRSGTSASLAISGLQSEDEADYYCLAWDASLNGWVFGGGTKLTVL | no binding | no binding | binds | – | – | – |
| S1R3B2_DP47_1E10 (scFv, V domains shown, scFv, on phage in the screen; also called Her2_S1R3B2_DP47_1E10) VH: not shown VL: HVILTQPPSTSGTPGQTVTISCSGSSSNIGSHYVYWYQQLPGTAPKLLIYRNNQRPSGVPDRFSGSKSGTSASLAISGLRSEDETDYYCAAWDDSLSGRVFGTGTKLTVL | no binding | no binding | binds | no binding | – | – |
| S1R2A_CS_1F7 (scFv, V domains shown, scFv, on phage in the screen) VH: not shown VL: QSVLTQPPSVSVAPGQTARMTCGGNNIESKTVHWYQQKPGQAPVLVVYNDNVRPSGIPARFSGSNSGNTATLTINRVEAGDEADYYCQVWDSSRDQGVFGGGTKLTVL | – | no binding | binds | – | – | – |
| S1R3C1_DP47_1H1 (scFv, V domains shown, scFv, soluble from bacterial periplasm in the screen; also called Her2_S1R3C1_DP47_1H1) VH: not shown VL: QSVLTQPPSVSVAPGQTARITCGGDKIGHKSVHWYQQKPGQAPVLLVYDDRKRPSGIPERFSGSNSGNTATLTISRVEAGDEAAYHCQVWDRSSDPYVFGTGTKVTVL | no binding | no binding | – | no binding | – | – |
| S1R3C1_CS_1B10 (scFv, V domains shown, scFv, on phage in the screen; also called Her2_S1R3C1_CS_1B10) VH: QVQLQQSGAEVKKPGSSVKVSCKASGGTISNYAISWVRLAPGQGLEWMGSIVPLHGTTNFAQKFQGRVTITADESTSTSYMEVNVLTYEDTAMYYCASLNWGYWGRGTLVTVSS VL: NFMLTQPHSVSESPGKTVTISCTGSSGSIASNYVQWYQQRPDSAPTTVIYEDNRRSSGVPDRFSGSIDSSSNSASLSISGLKTEDEADYYCQSYDSSGHVVFGGGTKLTVL | – | no binding | – | – | – | – |
| S1R3A1_CS_1B9 (scFv, V domains shown, scFv, soluble from bacterial periplasm in the screen; also called Her2_S1R3A1_CS_1B9) VH: KVQLVQSGTEVKKPGESLKISCQGSGYRFSSDWIAWVRQMPGKGLEWMGIVYPGDSDTRYSPSFQGQVTISADKSISTAYLQWSGLKASDTAKYYCARVQQAVGAKGYAMDVWGKGTLVTVSS VL: QTVVIQEPSFSVSPGGTVTLTCGLSSGSVSTSYYPSWYRQTPGQAPHTLIHNTKIRSSGVPDRFSGSILGNNAALTITGAQADDESDYYCLLYMGSGIYVFGGGTKLTVL | binds | – | – | binds | binds | binds |
| S1R2A_CS_1D3 (scFv, V domains shown, scFv, on phage in the screen) VH: EVQLVQSGAEVKKPGASVKVSCKASGYSFTAFYIHWVRQAPGQGLEYLGWIDPNTGATKYAQRFQGRVIMTWDTSITTATMELSRLTSDDSAVYYCVRDLREWGYELSVEYWGRGTLVTVSS VL: not shown | no binding | no binding | binds | no binding | – | – |
| S1R3C1_BMV_1H11 (scFv, V domains shown, scFv, soluble from bacterial periplasm in the screen; also called Her2_S1R3C1_BMV_1H11) VH: GVQLVESGGGLVKPGGSLRLSCAASGFTFSSYNMNWVRQAPGKGLEWVSAISGSGGSTYYADSVTGRFTISRDNSKNTLYLQMNSLRAEDTAVYYCAKDTSGWYGDGMDVWGRGTLVTVSS VL: DIQMTQSPSTLSASIGDRVTITCRASEGIYHWLAWYQQKPGKAPKLLIYKASSLASGAPSRFSGSGSGTDFTLTISSLQPDDFATYYCQQYSNYPLTFGGGTKLEIK | no binding | no binding | – | no binding | – | – |
| S1R3B2_BMV_1E1 (scFv, V domains shown, scFv, on phage in the screen; also called Her2_S1R3B2_BMV_1E1) VH: EVQLVETGGGVVQPGGSLSLSCAASGFTFSSYGMQWVRQAPGKGLEWVAFIRYDGSSEYYADSVKGRFTISRDNSKNTLYLQMNSLRAEDTAVYYCGRTLESSLWGKGTLVTVSS VL: QSVLTQPPSVSAAPGQKVTISCSGSTSNIGNNYVSWYQQHPGKAPKLMIYDVSKRPSGVPDRFSGSKSGNSASLDISGLQSEDEADYYCAAWDDSLSEFLFGTRTKLTVL | no binding | no binding | binds | no binding | – | – |
| S1R3A1_CS_1B10 (scFv, V domains shown, scFv, soluble from bacterial periplasm in the screen; also called Her2_S1R3A1_CS_1B10) VH: EVQLVQSGAEVKKPGASVRVSCKGSGNTFTGHYIHWVRQAPGQGLEWLGWIDPNTGDIQYSENFKGSVTLTRDPSINSVFMDLIRLTSDDTAMYYCAREGAGLANYYYYGLDVWGRGTMVTVSS VL: QTVVLQEPSFSVSPGGTVTLTCGLNFGSVSTAYYPSWYQQTPGQAPRTLIYGTNIRSSGVPDRFSGSIVGNKAALTITGAQTEDESDYYCALYMGSGMLFGGGTKVTVL | binds | – | – | binds | binds | binds |
